Laboratory results as given in patent publication US20140369997A1, “Pharmaceutical composition for a foaming eye drop” (PASE, priority 2011, published 2014).

Experiment: Foaming of eye drop solution containing a foaming agent mixed with gas
Format: physicochemical
Description: The preferred embodiment is a solution containing between 0.25%-5% of hydroxypropyl methylcellulose. This has been proven to produce a foam that is capable of holding enough gas to result in a 90% reduction in volume of the medication distributed in a drop. In other words the foam that is created is 90% gas and 10% liquid. The addition of hydroxypropyl methylcellulose is one of many ways that the pharmaceutical composition of the eye medication can be changed.
Any preferred additive should have properties similar to hydroxypropyl methylcellulose such that a large reduction in volume of liquid from the foamed form to the liquid form is obtained. The additive should be chosen to reduce the risk of eye irritation and to minimize any potential binding of the active ingredient. Hydroxypropyl methylcellulose is especially preferred because it is already known to be a safe ingredient to be applied to the eye as it is currently used in many eye drops to lubricate the eye. It also produces a more viscous solution which increases the retention time in the eye, thus giving the medication more time to be absorbed.

Which results are given for albumin?
consistency of foam produced (albumin concentration between 1%-25%): foam of the desired consistency; foaming agent quality (tested as foaming agent): excellent foaming agent
